This test has as its target 天然CHIKV-E2蛋白 (Chikungunya virus (Ross株)).

B1: 2A2-E10(HRP) (antibody, V domains shown)
VH: EVQLVESGGGLVQPKGSLKLSCAASGFTHNTYNMNWVRQAPGKGLEWVARIRSGSNMYATYYADSVKDRFTISRDDSQSILYLQMNNLKTEDTVMYYCERPDYSGSSYFDYWGQGTTLTVSS
VL: DIQLTQPPSYLAASPGETITINCRASKSYSKYCLAWYQEKPGKTNKLLIYSGSTLQSGIPSRFSGSGSGTDFTLTISSLEPEDFAMYYCQQGNMYPYTFGGGTKLEIK
In the case of B1, the DAS-ELISA检测灵敏度 worked out at 1e+06 PFU/mL.

The record behind these values is CN115093478A.
